Consider one molecule from patent US20180355396, “Biosensors for Organic and Inorganic Arsenic” (THE FLORIDA INTERNATIONAL UNIVERSITY BOARD OF TRUSTEES, published 2018).

For the data set, the target named is T1, AfArsR C102S (Acidithiobacillus ferrooxidans, UniProt B7J952 B7J952:1-118, C102S).
T1 sequence: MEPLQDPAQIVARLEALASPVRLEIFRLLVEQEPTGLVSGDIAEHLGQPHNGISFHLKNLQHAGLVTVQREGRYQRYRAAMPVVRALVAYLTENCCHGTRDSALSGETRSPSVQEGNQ
Put plainly: FP; anisotropy; complex little affected by As(III) up to 40 uM, dissociated by MAs(III), Rox(III), PhAs(III); same buffer. To be noted: tags: C-terminal His tag (pBADarsR, E. coli Top10); chain copies: 2 (homodimer, inferred); label: 5'-6-FAM.

B1: ars operator/promoter 30-mer (arsO) (dsDNA)
DNA 1: ATCCACGAATATTTCTTGCAGTATTGACAA
DNA 2: TTGTCAATACTGCAAGAAATATTCGTGGAT
Take B1: the binding result is recorded as “binds”.
